B1: desmin (intact chicken gizzard desmin) (natural protein, UniProt P02542 1-464, looked up)
chain: MSQSYSSSQRVSSYRRTFGGGTSPVFPRASFGSRGSGSSVTSRVYQVSRTSAVPTLSTFRTTRVTPLRTYQSAYQGAGELLDFSLADAMNQEFLQTRTNEKVELQELNDRFANYIEKVRFLEQQNALMVAEVNRLRGKEPTRVAEMYEEELRELRRQVDALTGQRARVEVERDNLLDDLQKLKQRLQEEIQLKEEAENNLAAFRADVDAATLARIDLERRIESLQEEIAFLKKVHEEEIRELQAQLQEQHIQVEMDISKPDLTAALRDIRAQYESIAAKNIAEAEEWYKSKVSDLTQAANKNNDALRQAKQEMLEYRHQIQSYTCEIDALKGTNDSLMRQMREMEERFAGEAGGYQDTIARLEEEIRHLKDEMARHLREYQDLLNVKMALDVEIATYRKLLEGEENRISIPMHQTFASALNFRETSPDQRGSEVHTKKTVMIKTIETRDGEVVSEATQQQHEVL

How the values were obtained:
[1] = molecular target: L-desmin (desmin lacking its carboxy-terminal 27 residues) (chicken); test: cross-linking
cross-linking = molecular target: the molecule itself; test: cross-linking

Row | Molecule | stoichiometry N [1] | stoichiometry N (cross-linking)
1 | L-desmin (desmin lacking its carboxy-terminal 27 residues) (domain or fragment) | 4 | 
2 | B1 |  | 4

— publication PMC2116342 (The Journal of Cell Biology, 1990)
